Reference: patent US20090074793A1 (published 2009)
Blank lines part the entries; values can stand above or below the binder they belong to.

Legend:
dimeric hIL-4R-mFc [1] = target: T1, dimeric hIL-4R-mFc (human, UniProt P24394 26-232); experiment: SPR (BIACORE 2000), antibody captured on anti-hFc, dimeric hIL-4R-mFc, 37° C.
T1 construct: not shown: mFc (mouse Fc)
T1 sequence: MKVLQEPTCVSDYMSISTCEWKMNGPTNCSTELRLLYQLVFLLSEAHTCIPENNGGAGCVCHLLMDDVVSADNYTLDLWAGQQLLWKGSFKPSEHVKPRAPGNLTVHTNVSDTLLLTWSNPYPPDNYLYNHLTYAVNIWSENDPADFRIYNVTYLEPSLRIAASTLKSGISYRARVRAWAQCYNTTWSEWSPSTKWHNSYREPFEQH
Procedure: (§1) Briefly, antibody was captured on a goat anti-hFc polyclonal antibody surface created through direct coupling to a BIACORE™ chip to form a captured antibody surface. Various concentrations (ranging from 50 nM to 12.5 nM) of monomeric hIL-4R (R&D Systems) or dimeric hIL-4R-mFc were injected over the captured antibody surface at 10 μl/min for 2.5 min at either 25° C. or 37° C. Binding of antigen to antibody and dissociation of the bound complex, were monitored in real time. Equilibrium dissociation constants (KD) and dissociation rate constants were ascertained by performing kinetic analysis using BIA evaluation software. BIA evaluation software was also used to calculate the half-life of antigen/antibody complex dissociation (T_{1/2}). […] Control: a fully human anti-IL-4R antibody (U.S. Pat. No. 7,186, 809; SEQ ID NOs:10 and 12).

dimeric hIL-4R-mFc [2] = target: T1, dimeric hIL-4R-mFc; experiment: ELISA-based solution competition, 25 pM hIL-4R-mFc, free receptor on biotin-hIL4 plate
Procedure: (§2) Antibody-antigen binding affinity was also assessed using an ELISA-based solution competition assay. Briefly, a 96-well MAXISORP™ plate was first coated with 5 μg/ml avidin overnight followed by BSA blocking for 1 hr. […] The plate was used to measure either free hIL-4R-mFc (dimeric hIL-4R) or free hIL-4R-myc-myc-his (hIL4R-mmh, monomeric hIL4R) in the antibody titration sample solutions. […] After 1 hr binding, the plate was washed and bound hIL-4R-mFc was detected using either an HRP-conjugated mouse anti-mFc polyclonal antibody or an HRP-conjugated goat anti-myc polyclonal antibodies. IC₅₀ values were determined (Table 2).

[3] = target: T2, monomeric hIL-4R (R&D Systems) (human, UniProt P24394 26-232, limits assumed); experiment: SPR (BIACORE 2000), antibody captured on anti-hFc, monomeric hIL-4R, 25° C.
T2 construct: Bought protein (R&D Systems); also called human IL-4 receptor alpha
T2 sequence: T1 sequence
Procedure: as §1

[4] = target: T2, monomeric hIL-4R (R&D Systems); experiment: SPR (BIACORE 2000), antibody captured on anti-hFc, monomeric hIL-4R, 37° C.
Procedure: as §1

hIL-4R-myc-myc-his = target: T3, hIL-4R-myc-myc-his (human, UniProt P24394 26-232); experiment: ELISA-based solution competition, 200 pM hIL-4R-mmh, free receptor on biotin-hIL4 plate
T3 construct: also called hIL-4R-mmh; hIL4R-mmh; not shown: myc-myc-his tag
T3 sequence: T1 sequence
Procedure: as §2

dimeric hIL-4R-mFc [5] = target: T1, dimeric hIL-4R-mFc; experiment: SPR (BIACORE 2000), antibody captured on anti-hFc, dimeric hIL-4R-mFc, 25° C.
Procedure: as §1

[6] = target: T4, hIL-4R on engineered HK293 cells (human STAT6 and STAT6 luciferase reporter) (human, UniProt P24394 26-232); experiment: cell-based or functional assay
T4 sequence: T1 sequence

[7] = target: T5, mfIL-4R of the cellular bioassay (monkey (Macaca fascicularis), UniProt P24394 26-231 (human entry)); experiment: cell-based or functional assay
T5 chain: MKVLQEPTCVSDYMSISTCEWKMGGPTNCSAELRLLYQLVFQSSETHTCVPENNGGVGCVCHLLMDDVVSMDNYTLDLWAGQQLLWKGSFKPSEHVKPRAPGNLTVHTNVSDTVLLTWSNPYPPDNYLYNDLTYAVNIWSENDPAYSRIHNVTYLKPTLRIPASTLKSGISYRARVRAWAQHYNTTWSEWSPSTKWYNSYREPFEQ

Kd (dimeric hIL-4R-mFc [1]): 38.1 pM | T1/2 (dimeric hIL-4R-mFc [1]): 2.72 h | IC50 (dimeric hIL-4R-mFc [2]): 9.6 pM | Kd [3]: 48 pM | T1/2 [3]: 6.02 h | Kd [4]: 183 pM | T1/2 [4]: 1.45 h | IC50 (hIL-4R-myc-myc-his): 80 pM | T1/2 (dimeric hIL-4R-mFc [5]): 4.08 h | IC50 (pM), STAT6 luciferase bioassay, 10 pM hIL-4 [6]: 25 pM | IC50 (pM), STAT6 luciferase bioassay, 40 pM hIL-13 [6]: 19 pM
B1: H4H083P (antibody, V domains shown)
VH: EVQLVESGGGLVQPGRSLRLSCEASGFTFDDYAMHWVRQAPGKGLEWVSGLSRTSVSIGYADSVKGRFTISRDNAKNSLYLEMNSLRPEDTALYYCAKWGTRGYFDYWGQGTLVTVSS
VL: DIQMTQSPSSVSASVGDRVTITCRASQDISIWLAWYQQSPGKAPKLLINVASRLQSGVPSRFSGSGSGTDFTLTINSLQPEDFVTYYCQQANSFPITFGQGTRLEIK
notes: Human anti-hIL-4R antibody captured via anti-hFc

IC50, bioassay in the presence of 360 fM mfIL-4 [7]: 150000 pM | IC50 (pM), STAT6 luciferase bioassay, 10 pM hIL-4 [6]: 27 pM | IC50 (pM), STAT6 luciferase bioassay, 40 pM hIL-13 [6]: 25 pM
B2: H4H098P (antibody, V domains shown)
VH: EVQLVESGGGLEQPGGSLRLSCAGSGFTFRDYAMTWVRQAPGKGLEWVSSISGSGGNTYYADSVKGRFTISRDNSKNTLYLQMNSLRAEDTAVYYCAKDRLSITIRPRYYGLDVWGQGTTVTVS
VL: DIVMTQSPLSLPVTPGEPASISCRSSQSLLYSIGYNYLDWYLQKSGQSPQLLIYLGSNRASGVPDRFSGSGSGTDFTLKISRVEAEDVGFYYCMQALQTPYTFGQGTKLEIK

Kd (dimeric hIL-4R-mFc [1]): 314 pM | T1/2 (dimeric hIL-4R-mFc [1]): 1.93 h | IC50 (dimeric hIL-4R-mFc [2]): 40 pM | Kd [3]: 274 pM | T1/2 [3]: 2.18 h | Kd [4]: 437 pM | T1/2 [4]: 0.817 h | IC50 (hIL-4R-myc-myc-his): 90 pM | Kd (dimeric hIL-4R-mFc [5]): 302 pM | T1/2 (dimeric hIL-4R-mFc [5]): 2.6 h | IC50 (pM), STAT6 luciferase bioassay, 10 pM hIL-4 [6]: 98 pM | IC50 (pM), STAT6 luciferase bioassay, 40 pM hIL-13 [6]: 86 pM
B3: H4H095P (antibody, V domains shown)
VH: QVQLVESGGGVVQPGRSLRLSCAASGFTFRSYGMHWVRQAPGKGLEWVAVISYDGSNKYYIDSVKGRFTISRDNSKNTLNLQMNSLRLEDTAVYYCAKEGRGGFDYWGQGTLVTVSS
VL: DIQMTQSPSSLSASVGDRVTITCRASQVINNYLAWFQQKPGKVPKSLIHAASSLQSGVPSKFSGSGSGTDFTLTISSLQPEDFATYYCQQYNSHPWTFGQGTKVEIK
notes: as for B1
